Assay results as given in PMC10397247.

Assays:
Assay in all cases: two-hybrid library CCmax;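 also: natural log of median RNA to DNA barcode read ratio; higher means stronger binding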
Conditions in all cases: mean of both orientations
[1] = molecular target: T1, Core_NNNI-es_KKEE
T1 chain: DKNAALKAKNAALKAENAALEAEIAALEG

[2] = molecular target: T2, Core_NINN-es_KKKK
T2 chain: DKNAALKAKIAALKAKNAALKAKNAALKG

[3] = molecular target: T3, Core_NNIN-es_KEKE
T3 chain: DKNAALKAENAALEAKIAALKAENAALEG

Binder: DENAALEAENAALEAKNAALKAKIAALKG [Core_NNNI-es_EEKK]
- interaction score [1]: 2.38

Binder: DENAALEAEIAALEAENAALEAENAALEG [Core_NINN-es_EEEE]
- interaction score [2]: 2

Binder: DENAALEAKNAALKAEIAALEAKNAALKG [Core_NNIN-es_EKEK]
- interaction score [3]: 1.67
